{"source": "patent US10308606B2", "about": "“PSMA-targeted NIR dyes and their uses” (On Target Laboratories, LLC, priority 2016, dated 2019)", "key": {"[1]": {"tested_on": "22Rv1 human prostate tumor xenograft", "experiment": "Time dependent whole body imaging", "format": "in vivo, mouse", "conditions": "10 nmol, FIG. 6", "procedure": "FIGS. 6A-6F: Overlay of whole body or half body fluorescence image over white light images after adjusting the threshold. 22Rv1 human prostate tumor xenograft bearing mouse was injected with 10 nmol of 1: OTL78 and imaged with IVIS imager (ex=745 nm, em=ICG, exposure time=1 s) at different time intervals.\nSettings for imaging:—lamp level: medium; excitation: 745 nm; emission: ICG(830 nm); epi illumination; binning: 4 (M), FOV=12.5; f-stop=2; acquisition time=1 s. For time dependent studies, animals were imaged under anesthesia using isoflurane. Whole body imaging (intact tumor) experiments was then performed using a Caliper IVIS Lumina II Imaging Station with Living Image 4.0 software (PerkinElmer Inc, MA)."}, "PSMA": {"target": "T1, PSMA (Homo sapiens, UniProt Q04609)", "T1 construct": "PSMA-positive 22Rv1 human prostate cancer cells; endogenous in cells; host or cells: 22Rv1 human prostate cancer cells", "T1 sequence (Q04609 whole entry)": "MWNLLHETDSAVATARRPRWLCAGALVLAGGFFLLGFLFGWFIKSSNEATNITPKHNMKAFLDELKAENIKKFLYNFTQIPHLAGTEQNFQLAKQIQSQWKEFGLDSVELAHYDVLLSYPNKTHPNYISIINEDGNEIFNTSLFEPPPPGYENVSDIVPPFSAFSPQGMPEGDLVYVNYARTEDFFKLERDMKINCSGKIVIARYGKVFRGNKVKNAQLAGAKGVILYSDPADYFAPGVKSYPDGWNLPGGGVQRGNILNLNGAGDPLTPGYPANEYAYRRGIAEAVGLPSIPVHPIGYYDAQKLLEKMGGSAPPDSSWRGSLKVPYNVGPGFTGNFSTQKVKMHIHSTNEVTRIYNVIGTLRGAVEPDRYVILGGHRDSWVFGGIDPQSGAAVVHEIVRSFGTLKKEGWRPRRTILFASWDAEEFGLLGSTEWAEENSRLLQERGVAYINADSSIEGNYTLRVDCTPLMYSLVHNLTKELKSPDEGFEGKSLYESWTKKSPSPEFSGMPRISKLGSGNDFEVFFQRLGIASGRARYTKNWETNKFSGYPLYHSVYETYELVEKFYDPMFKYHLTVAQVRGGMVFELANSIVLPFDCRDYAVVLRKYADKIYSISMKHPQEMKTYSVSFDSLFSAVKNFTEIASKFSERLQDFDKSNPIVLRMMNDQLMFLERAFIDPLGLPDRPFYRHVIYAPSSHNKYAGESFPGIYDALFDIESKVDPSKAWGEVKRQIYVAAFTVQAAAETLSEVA", "experiment": "In vitro binding: relative binding affinity versus DUPA-FITC on PSMA-positive 22Rv1 cells", "conditions": "1 h at 37° C., 100 nM DUPA-FITC, FIG. 2, read-out: dissociation constant (KD)", "procedure": "FIG. 2 illustrates the relative binding affinity of 1: OTL78 with respect to DUPA-FITC (14). PSMA-positive 22Rv1 human prostate cancer cells were incubated for 1 h at 37° C. in the presence of 100 nM DUPA-FITC with increasing concentrations of 1. Media was then removed, washed with fresh media three times, and replaced with PBS. Cell bound fluorescence was assayed as using flow cytometry.\nGeneral Methods: 22Rv1 cells (a human prostate cancer cells) were grown as a monolayer using RPMI medium (Gibco, NY) 10% heat-inactivated fetal bovine serum (Atlanta Biological, GA) and 1% penicillin streptomycin (Gibco, NY) in a 5% carbon dioxide: 95% air-humidified atmosphere at 37° C. for at least six passages before they were used for the assays.\nIn vitro binding and specificity: 22Rv1 cells were seeded into a T75 flask and allowed to form a monolayer over 24 h. After trypsin digestion, release cells were transferred into centrifuge tubes (1×10^6 cells/tube) and centrifuged. […] After rinsing with fresh medium (2×1.0 mL) and PBS (1×1.0 mL), cells were resuspended in PBS (1.0 mL) and cell bound fluorescence was analyzed (100,000 cells/sample) using a fluorometer (Cary, Agilent). The relative binding affinities were calculated using a plot of % cell bound fluorescence versus the log concentration of the test article using GraphPad Prism 4."}}, "note": "pKd: −log10 of the molar value."}
{"compound": "CC1(C)C(/C=C/C2=C(Oc3ccc(C[C@H](NC(=O)[C@H](Cc4ccccc4)NC(=O)CCOCCOCCNC(=O)CC[C@H](NC(=O)N[C@@H](CCC(=O)O)C(=O)O)C(=O)O)C(=O)O)cc3)C(=C/C=C3/N(CCCCS(=O)(=O)O)c4ccc(S(=O)(=O)O)cc4C3(C)C)/CCC2)=[N+](CCCCS(=O)(=O)[O-])c2ccc(S(=O)(=O)O)cc21", "note": "[1: OTL78, DUPA_PEG2_Phe_Tyr-50456]", "values": [{"measurement": "time remained in the tumor", "setting": "[1]", "value": "over 24 h"}, {"measurement": "time to saturation in PSMA-positive tumors", "setting": "[1]", "value": "≤ 2", "unit": "h"}]}
{"compound": "DUPA_PEG2—Phe_Tyr-S0456 [compound 5]", "values": [{"measurement": "pKd", "setting": "PSMA", "value": 9.00}]}
